According to patent US20230250154A1 (CYTONICS, published 2023):

Key:
Test in all cases: cell-based or functional assay
MMP13 = MMP13 (human, UniProt P45452 104-471, limits assumed)
ADAMTS4 = molecular target: T1, ADAMTS4 (human, UniProt O75173 213-685, limits assumed)
T1 sequence (looked up): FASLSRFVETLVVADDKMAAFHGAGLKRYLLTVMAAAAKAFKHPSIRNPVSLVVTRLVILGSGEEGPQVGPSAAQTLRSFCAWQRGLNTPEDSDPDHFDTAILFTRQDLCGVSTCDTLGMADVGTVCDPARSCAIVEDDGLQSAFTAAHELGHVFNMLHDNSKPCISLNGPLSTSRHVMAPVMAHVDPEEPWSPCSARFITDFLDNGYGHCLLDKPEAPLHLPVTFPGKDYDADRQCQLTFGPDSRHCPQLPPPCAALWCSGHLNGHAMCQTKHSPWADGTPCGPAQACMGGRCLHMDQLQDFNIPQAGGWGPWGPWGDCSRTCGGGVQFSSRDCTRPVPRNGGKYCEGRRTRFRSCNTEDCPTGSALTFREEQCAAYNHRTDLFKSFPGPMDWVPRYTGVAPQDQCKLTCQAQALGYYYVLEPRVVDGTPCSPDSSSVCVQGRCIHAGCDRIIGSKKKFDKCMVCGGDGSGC

ADAMTS5 = molecular target: T2, ADAMTS5 (human, UniProt Q9UNA0 262-622, limits assumed)
T2 sequence (looked up): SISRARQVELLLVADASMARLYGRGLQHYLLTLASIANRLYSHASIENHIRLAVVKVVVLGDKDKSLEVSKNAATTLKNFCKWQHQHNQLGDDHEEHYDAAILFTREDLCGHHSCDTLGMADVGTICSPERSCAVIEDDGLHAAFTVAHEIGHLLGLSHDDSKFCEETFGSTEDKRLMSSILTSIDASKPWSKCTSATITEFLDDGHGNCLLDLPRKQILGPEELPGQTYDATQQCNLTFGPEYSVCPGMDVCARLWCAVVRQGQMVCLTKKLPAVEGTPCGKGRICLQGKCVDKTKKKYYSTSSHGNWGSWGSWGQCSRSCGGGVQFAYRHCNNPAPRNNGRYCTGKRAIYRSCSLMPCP

Protease Inhibition (% of WT) (MMP13): 11 % of WT | Protease Inhibition (% of WT) (ADAMTS4): 100 % of WT | Protease Inhibition (% of WT) (ADAMTS5): 190 % of WT
B1: Variant A2M, bait region SEQ ID NO 117 (other)
chain: SVSGKPQYMVLVPSLLHTETTEKGCVLLSYLNETVTVSASLESVRGNRSLFTDLEAENDVLHCVAFAVPKSSSNEEVMFLTVQVKGPTQEFKKRTTVMVKNEDSLVFVQTDKSIYKPGQTVKFRVVSMDENFHPLNELIPLVYIQDPKGNRIAQWQSFQLEGGLKQFSFPLSSEPFQGSYKVVVQKKSGGRTEHPFTVEEFVLPKFEVQVTVPKIITILEEEMNVSVCGLYTYGKPVPGHVTVSICRKYSDASDCHGEDSQAFCEKFSGQLNSHGCFYQQVKTKVFQLKRKEYEMKLHTEAQIQEEGTVVELTGRQSSEITRTITKLSFVKVDSHFRQGIPFFGQVRLVDGKGVPIPNKVIFIRGNEANYYSNATTDEHGLVQFSINTTNVMGTSLTVRVNYKDRSPCYGYQWVSEEHEEAHHTAYLVFSPSKSFVHLEPMSHELPCGHTQTVQAHYILNGGTLLGLKKLSFYYLIMAKGGIVRTGTHGLLVKQEDMKGHFSISIPVKSDIAPVARLLIYAVLPTGDVIGDSAKYDVENCLANKVDLSFSPSQSLPASHAHLRVTAAPQSVCALRAVDQSVLLMKPDAELSASSVYNLLPEKDLTGFPGPLNDQDDEDCINRHNVYINGITYTPVSSTNEKDMYSFLEDMGLKAFTNSKIRKPKMCPQLEENFFGVTEGEARGSPTSEDLVVQKEEEGLGSEAIPMSIPKLRKYFPETWIWDLVVVNSAGVAEVGVTVPDTITEWKAGAFCLSEDAGLGISSTASLRAFQPFFVELTMPYSVIRGEAFTLKATVLNYLPKCIRVSVQLEASPAFLAVPVEKEQAPHCICANGRQTVSWAVTPKSLGNVNFTVSAEALESQELCGTEVPSVPEHGRKDTVIKPLLVEPEGLEKETTFNSLLCPSGGEVSEELSLKLPPNVVEESARASVSVLGDILGSAMQNTQNLLQMPYGCGEQNMVLFAPNIYVLDYLNETQQLTPEIKSKAIGYLNTGYQRQLNYKHYDGSYSTFGERYGRNQGNTWLTAFVLKTFAQARAYIFIDEAHITQALIWLSQRQKDNGCFRSSGSLLNNAIKGGVEDEVTLSAYITIALLEIPLTVTHPVVRNALFCLESAWKTAQEGDHGSHVYTKALLAYAFALAGNQDKRKEVLKSLNEEAVKKDNSVHWERPQKPKAPVGHFYEPQAPSAEVEMTSYVLLAYLTAQPAPTSEDLTSATNIVKWITKQQNAQGGFSSTQDTVVALHALSKYGAATFTRTGKAAQVTIQSSGTFSSKFQVDNNNRLLLQQVSLPELPGEYSMKVTGEGCVYLQTSLKYNILPEKEEFPFALGVQTLPQTCDEPKAHTSFQISLSVSYTGSRSASNMAIVDVKMVSGFIPLKPTVKMLERSNHVSRTEVSSNHVLIYLDKVSNQTLSLFFTVLQDVPVRDLKPAIVKVYDYYETDEFAIAEYNAPCSKDLGNADYKDDDDKGASHHHHHH
